Measured values taken from patent US20130225503A1, “TEX14 PEPTIDES AS NOVEL ANTITUMOR AGENTS” (Baylor Licnensing Group, priority 2009, published 2013).

T1: CEP55 (C1) hinge region (Mus musculus, UniProt Q8BT07)
T1 construct: an 80-amino-acid fragment of CEP55 (C1) that contains the hinge region; expressed in transfected cells; host or cells: yeast (Matchmaker Two-Hybrid System 3, Clontech)
T1 sequence (Q8BT07 157-235 limits assumed): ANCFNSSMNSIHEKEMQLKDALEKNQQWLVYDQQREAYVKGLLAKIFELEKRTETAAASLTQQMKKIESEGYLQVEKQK


Legend:
CEP55 (C1) hinge region = target: T1, CEP55 (C1) hinge region; test: Yeast two-hybrid assay of truncated TEX14 with the CEP55 hinge fragment C1; type: binding; conditions: 80-amino-acid fragment of CEP55 containing the hinge region; FIG. 3A to C
Procedure: (§1) Protein-protein interactions were evaluated by using the Matchmaker Two-Hybrid System 3 (Clontech) as described previously (10). Mouse full-length TEX14 and MLKP1 were previously subcloned into the Matchmaker GAL4 two-hybrid pGBKT7 and pGADT7 vectors (10). The constructs of full-length mouse and human CEP55, human TEX14, truncated mouse CEP55-C1, and truncated mouse TEX14-T1, T2, T1[…]T2, T3, T4, and T4-C were made by using the Matchmaker GAL4 two-hybrid pGBKT7 bait vector and pGADT7 prey vectors. Some Y2H interactions were examined with an oxygen biosensor assay (Clontech PT3584-1) that measured the fluorescence emitted by an oxygen-sensing platform that detects GAL4.
To determine the relevance of this GPPX3Y motif as it relates to the interaction of TEX14 with CEP55, we performed yeast two-hybrid assays with mouse TEX14 amino acids 756 to 815 that contain the GPPX3Y motif (FIG. 3A). These 60 amino acids interacted with full-length CEP55 (FIGS. 3B and C). Conversely, an 80-amino-acid fragment of CEP55 (C1) that contains the hinge region interacted with full-length TEX14, the C terminus (T3), and GPPX3Y-containing fragment (T4) but not a shorter sequence that lacked the GPPX3Y motif (T4-C) (FIG. 3A to C). Thus, similar GPPX3Y-containing regions of TEX14, ALIX, and TSG101 interact with the hinge region of CEP55.

[1] = target: the molecule itself; test: yeast two-hybrid, full-length proteins, oxygen biosensor and selection plates
Procedure: (A) Immunoprecipitation (IP) of FLAG-TEX14 and/or MYC-CEP55 from HEK293T cells, followed by Western blot analysis with the antibodies as shown. Immunoprecipitation of protein G (lanes G) is the control. (B) Yeast two-hybrid analyses using vectors encoding full-length mouse TEX14, MKLP1, CEP55, and positive and negative controls. The relative ratios of TEX14-TEX14, TEX14-MKLP1, and TEX14-CEP55 interactions were determined by using an oxygen-biosensor system. (C) Yeast two-hybrid interactions of mouse and human full-length TEX14 and CEP55. (a) Yeast were stably transformed with vectors and plated for yeast two-hybrid analysis as depicted. SV40 T antigen with p53 and SV40 T antigen with lamin C were used as positive and negative controls, respectively. (b) Interactions between the two-hybrid proteins are evident by colony growth and blue color on selection plates.
as §1
Since both CEP55 and TEX14 interact with MKLP1 (10, 22), it was determined whether CEP55 and TEX14 are components of the intercellular bridge as direct or indirect interactors. The inventors first overexpressed full-length FLAG-TEX14 and MYC-CEP55 constructs in HEK293T cells (FIG. 2A). […] Likewise, when the inventors immunoprecipitate with anti-MYC antibody, they immunoprecipitate both MYC-CEP55 and FLAG-TEX14.

yeast two-hybrid interaction with CEP55 fragment C1 (CEP55 (C1) hinge region) | Molecule | binding result [1]
interacted | T4: GPPX3Y-containing fragment of mouse TEX14, amino acids 756 to 815 (EVEELEWAQKELDSQCSSLRDASLKFANAKFQPAVGPPSLAYLPPVMQLPGLKQPENGGT; UniProt Q7M6U3 756-815, looked up, fragment) | –
– | full-length mouse TEX14 (other, UniProt Q7M6U3 1-1450, looked up, whole, on cells; In the yeast two-hybrid assay it stood as a fusion with a GAL4 domain (pGBKT7 bait or pGADT7 prey vector)) MSRGAPFPVPCPVLLGTFTDDSLEAQLHEYAKQGNCVKLKKILKKGVCVDAVNTQGQSALFVAALLGHVKLVDVLVDYGSDPNHRCFDGSTPVHAAAFSGNQWILSKLLTAGGDLRLHDEKGRNPQAWALTAGKDRSTQMVEFMQRCTSHMKAIIQGFSYDLLKKIDSPQRLIGSPPWFGSLIQGSPNSSPNRQLKPGIISAQNIYSFGFGKFYLTSGMQLTYPGSLPVIGEKEVVQADDEPTFSFFSGPYMVMTNLVWNRSRVTVKELNLPTRPHCSRLRLADLLIAEQEHSSNLRHPNLLQLMAVCLSRDLEKIRLVYERITVGTLFSVLHERRSQFPVLHMEVIVHLLLQVADALIYLHSRGFIHRSLSSYAVHIVSAGEARLTNLEYLTESQDSGAHRNVTRMPLPTQLYNWAAPEVVLQKAATVKSDIYSFSVIIQEILTDSIPWNGLDGSLVKETIALGNYLEADVRLPEPYYDIVKSGIHAKQKNRTMNLQDIRYILKNDLKEFIGAQKTQPTESPRGQSYEPHPDVNICLGLTSEYQKDPPDLDIKELKEMGSQPHSPTDHSFLTVKPTLAPQTLDSSLSAQKPDNANVPSPPAACLAEEVRSPTASQDSLCSFEINEIYSGCLTLGTDKEEECLGTAASPEGDRPNQGDELPSLEEELDKMERELHCFCEEDKSISEVDTDLLFEDDDWQSDSLGSLNLPEPTREAKGKTSSWSKTDEYVSKCVLNLKISQVMMQQSAEWLRKLEQEVEELEWAQKELDSQCSSLRDASLKFANAKFQPAVGPPSLAYLPPVMQLPGLKQPENGGTWLTLARSPGNEREFQEGHFSKKPEKLSACGWKPFTQVSEESRGDCSELNNQLPTLRGPGKQSTGEQLPSTQEARESLEKNTNQNSRSMASVSSEIYATKSRNNEDNGEAHLKWRLAVKEMAEKAVSGQLLLPPWNPQSSAPFESKVENESTPLPRPPIRGPESTEWQHILEYQRENDEPKGNTKFGKMDNSDCDKNKHSRWTGLQRFTGIRYPFFRNHEQPEQNEASQASCDTSVGTEKFYSTSSPIGDDFERFQDSFAQRQGYVEENFQIREIFEKNAEILTKPQFQAIQCAEDKQDETLGETPKELKEKNTSLTDIQDLSSITYDQDGYFKETSYKTPKLKHAPTSASTPLSPESISSAASHYEDCLENTTFHVKRGSTFCWNGQEAMRTLSAKFTTVRERAKSLESLLASSKSLPAKLTDSKRLCMLSETGSSNVSAAFVTSTHATKRKSLPRELAEATSQQHLDELPPPAQELLDEIEQLKQQQVSSLASHENTARDLSVTNKDKKHLEEQETNSSKDSSFLSSREIQDLEDTERAHSSLDEDLERFLQSPEENTALLDPTKGSTREKKNKDQDVVEQKRKKKESIKPERRESDSSLGTLEEDELKPCFWKRLGWSEPSRIIVLDQSDLSD | binds
